Measurements as given in doi:10.1101/2022.06.26.497646.

Target: complex III dimer (CIII2, cytochrome bc1 complex) of Tetrahymena thermophila (Tetrahymena thermophila (endogenous))
Test: cryo-EM structure

Question: “complex III dimer (CIII2, cytochrome bc1 complex) of Tetrahymena thermophila” was tested. Which stoichiometry N did it give?
Answer: 2
